{"source": "paper PMC9142731", "about": "(2022)", "target": "SARS-CoV nucleocapsid protein, recombinant (SARS-CoV, UniProt P59595 1-422)", "sequence (P59595 whole entry)": "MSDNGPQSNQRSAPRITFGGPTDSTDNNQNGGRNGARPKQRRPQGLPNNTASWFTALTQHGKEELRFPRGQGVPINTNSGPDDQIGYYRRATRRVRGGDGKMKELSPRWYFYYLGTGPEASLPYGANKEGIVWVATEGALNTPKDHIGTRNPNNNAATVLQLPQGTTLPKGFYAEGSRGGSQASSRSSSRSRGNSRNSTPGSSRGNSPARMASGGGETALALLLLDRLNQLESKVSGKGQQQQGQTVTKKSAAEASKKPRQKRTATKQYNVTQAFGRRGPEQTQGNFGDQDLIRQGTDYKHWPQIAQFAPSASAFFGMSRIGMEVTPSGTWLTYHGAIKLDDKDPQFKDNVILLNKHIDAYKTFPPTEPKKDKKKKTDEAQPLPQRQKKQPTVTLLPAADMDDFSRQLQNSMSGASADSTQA", "assay": "SPR"}
{"binder": "P301-F7 (antibody, V domains shown) VH: QLQLQESGPGLVKPSETLSLTCTVSGGSISSTSYYWGWIRQPPGKGLEWIGSIYYSGSTYYNPSLKSRVTISVDTSKNQFSLKLSSVTAADTAVYYCARFSLYCSSTSCYENWFDPWGQGTLVTVSS VL: QSVLTQPPSVSAAPGQKVTISCSGSSSNIGNNYVSWYQQLPGTAPKLLIYDNNKRPSGIPDRFSGSKSGTSATLGITGLQTGDEADYYCGTWDSSLSAGQVVFGGGTKLTVL", "values": [{"measurement": "Kd", "value": 33.4, "unit": "nM"}]}
